Measured values reported in US20230241072A1 (ALMAC DISCOVERY, published 2023).

Assays:
[1] = molecular target: T1, human ROR1-hFc fusion protein (extracellular domain) (human, UniProt Q01973 30-406); assay: SPR (Pioneer) or BLI (Octet K2); ROR1-hFc extracellular domain amine-coupled
T1 construct: extracellular domain; Immobilised by amine coupling on COOH2 chips or AR2G sensors; also called hROR1; not shown: human Fc (hFc)
Description: (§1) VNARs were genetically fused to engineered hIgG1 Fc domains via standard [G₄S]₃ that contained a cysteine substitution in the hIgG1 Fc sequence, S239C (EU numbering). The VNAR Fc fusion proteins were expressed as secreted protein in CHO K1 cells and purified from the media using MabSelect™ SuRe™ (Evitria, Switzerland). Purified proteins were analysed by SEC (AdvanceBio, Agilent), SDS PAGE and mass spectrometry to confirm sequence and protein integrity. Binding kinetics were determined using a Pioneer Surface Plasmon Resonance (SPR) instrument (SensiQ/Pall ForteBio), or the Biolayer Interferometry (BLI) Octet K2 system (ForteBio). ROR1-hFc or ROR2-hFc fusion proteins (extracelluar domains) were immobilised in sodium acetate pH5 buffer to COOH₂ chips or AR2G sensors using amine coupling. VNARs and VNAR-Fc molecules were tested at various concentrations and the Ka (M⁻¹ s⁻¹), Kd (s⁻¹) and KD (nM) values were determined using QDat software (SensiQ/Pall ForteBio) or Octet Data Analysis High Throughput software (ForteBio) for Biolayer Interferometry.

[2] = molecular target: T2, human ROR2-hFc fusion protein (extracellular domain) (human, UniProt Q01974 34-403); assay: SPR (Pioneer) or BLI (Octet K2); ROR2-hFc extracellular domain amine-coupled
T2 construct: extracellular domain; Immobilised by amine coupling; also called hROR2; not shown: human Fc (hFc)
Description: as §1

Row | Binder | Kd [1] [nM] | koff [1] [s⁻¹] | kon [1] [M⁻¹ s⁻¹] | binding result [2] | binding result [1]
1 | B1V15 hFc (Fc fusion, Humanised B1 variant fused to hFc; not shown: human IgG1 Fc domain) ASVTQSPRSASKETGESLTITCRVTGANYGLAATYWYRKNPGSSNQERISISGRYSESVNKRTMSFSLRISSLTVEDSATYYCKAYPWGAGAPWLVQWYDGQGTKLEVKGGGGSGGGGSGGGGS | 0.726 | 0.00013 | 179000 | no binding | –
2 | P3A1 hFc(442) (Fc fusion, hIgG1 Fc with S442C (EU); also called P3A1hFc(S442C); not shown: human IgG1 Fc domain) TRVDQTPRTATKETGESLTINCVLTDTSYGLYSTSWFRKNPGTTDWERMSIGGRYVESVNKGAKSFSLRIKDLTVADSATYYCKAREARHPWLRQWYDGAGTVLTVNGGGGSGGGGSGGGGS | 0.741 | 0.0002 | 270000 | no binding | –
3 | P3A1 hFc (Fc fusion, VNAR fused to engineered hIgG1 Fc via [G4S]3; also called P3A1hFc(S239C); not shown: human IgG1 Fc domain) TRVDQTPRTATKETGESLTINCVLTDTSYGLYSTSWFRKNPGTTDWERMSIGGRYVESVNKGAKSFSLRIKDLTVADSATYYCKAREARHPWLRQWYDGAGTVLTVNGGGGSGGGGSGGGGS | – | 0.000564 | – | no binding | –
4 | 2V hFc (Fc fusion, Control VNAR from a naive library, no known target; not shown: human IgG1 Fc domain) TRVDQTPRTATKETGESLTINCVLTDTSYGLYSTSWFRKNPGTTDWERMSIGGRYVESVNKGAKSFSLRIKDLTVADSATYYCKAQSLAISTRSYWYDGAGTVLTVNGGGGSGGGGSGGGGS | – | – | – | no binding | no binding
5 | hFc - P3A1 (Fc fusion, VNAR at the C-terminus of the Fc, by the printed name; not shown: human IgG1 Fc domain) GGGGSGGGGSGGGGSTRVDQTPRTATKETGESLTINCVLTDTSYGLYSTSWFRKNPGTTDWERMSIGGRYVESVNKGAKSFSLRIKDLTVADSATYYCKAREARHPWLRQWYDGAGTVLTVN | – | 0.000776 | – | no binding | –
